From PMC6607583 come the findings set out here.

Experiment [1] addresses HIV-1 NL4-3 Nef-FTS Mut1 (WL-EEEE to AA-AAAA) (HIV-1 (NL4-3 strain)) (UniProt P03406). Kind of experiment: pull-down; HeLa cells transiently transfected with FTS-tagged bait, cross-linked with 1 mM DSP (4 °C, 6 h), lysed in 50 mM Tris-HCl pH 7.4, 300 mM NaCl, 5 mM EDTA, 0.5% NP-40; bait isolated on Strep-Tactin resin overnight at 4 °C; endogenous prey detected by immunoblotting. On the technique in general: In western blotting, separated proteins are transferred to a membrane and probed.

Experiment [2] concerns the target HIV-1 NL4-3 Nef-FTS Mut2 (EEEE-PxxP to AAAA-AxxA) (HIV-1 (NL4-3 strain)) (UniProt P03406). The description is as above.

Regarding “autophagy-related 9A (ATG9A) protein, endogenous in HeLa (from UniProt Q7Z3C6 1-839) (natural protein)”, the Nef-ATG9A pulldown relative to WT Nef in experiment [1] and in experiment [2] was 10 % of WT Nef each time.
